This series deals with the molecule itself. As to the kind of experiment: cross-linking; disulfide-linked species of purified GST-TNIK KD; oxidised in vitro with 50 uM H2O2 at 30°C for 15 min or without H2O2 (air oxidation); nonreducing (-DTT) or reducing (+DTT) SDS-PAGE and Western blotting. For orientation: A western blot detects proteins with antibodies after separation by electrophoresis.

From PMC11661440, “TNIK: A redox sensor in endothelial cell permeability” (Science Advances, 2024) come the findings set out here.

B1: Recombinant GST-tagged TNIK kinase domain (human amino acids 1 to 367) (domain or fragment, UniProt Q9UKE5 1-367, looked up)
chain: MASDSPARSLDEIDLSALRDPAGIFELVELVGNGTYGQVYKGRHVKTGQLAAIKVMDVTGDEEEEIKQEINMLKKYSHHRNIATYYGAFIKKNPPGMDDQLWLVMEFCGAGSVTDLIKNTKGNTLKEEWIAYICREILRGLSHLHQHKVIHRDIKGQNVLLTENAEVKLVDFGVSAQLDRTVGRRNTFIGTPYWMAPEVIACDENPDATYDFKSDLWSLGITAIEMAEGAPPLCDMHPMRALFLIPRNPAPRLKSKKWSKKFQSFIESCLVKNHSQRPATEQLMKHPFIRDQPNERQVRIQLKDHIDRTKKKRGEKDETEYEYSGSEEEEEENDSGEPSSILNLPGESTLRRDFLRLQLANKERSEA
notes: Oxidised in vitro with 50 uM H2O2 (30°C, 15 min) or left without H2O2; The disulfide-linked species were seen on nonreducing SDS-PAGE; GST is kept on the protein; also called GST-TNIK KD; TNIK KD; source: bought: Thermo Fisher Scientific, recombinant purified
Turning to B1, the binding result is “binds”.
